The results in this text go back to article PMC13233820 (2026).

Assay [1] deals with T1, yeast Smt3 (Smt3-6xHis) (S. cerevisiae, UniProt Q12306 1-101 = SUMO, U-[13C,15N] labelled in the NMR experiments).
T1 chain: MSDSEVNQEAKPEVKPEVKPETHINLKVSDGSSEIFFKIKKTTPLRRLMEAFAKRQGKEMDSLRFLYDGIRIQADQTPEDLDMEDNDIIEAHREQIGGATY
The assay can be described thus: ITC; Smt3 150 uM.

In assay [2] the target is T1, yeast Smt3 (Smt3-6xHis). The assay can be described thus: ITC; Smt3 300 uM. On the technique in general: Isothermal titration calorimetry measures the heat released or taken up as one component is titrated into another.

Take ENDIIMVSTDE [synthetic Mre11-SIM3 peptide, wild type]: the Kd was determined as 30.2 µM in assay [1] and 15.3 µM in assay [2].

The term Kd denotes the concentration at which binding is half-saturated.
